According to patent US20120315277A1, “Compositions and Methods for the Therapy and Diagnosis of Influenza” (priority 2011, published 2012):

Target: M2 protein of influenza A/Puerto Rico/8/34 (H1N1) on cells (influenza A virus A/Puerto Rico/8/34 (H1N1)) (UniProt P06821)
Assay: FACS, MDCK cells infected with A/Puerto Rico/8/34

Sequence of M2 protein of influenza A/Puerto Rico/8/34 (H1N1) on cells (influenza A virus A/Puerto Rico/8/34 (H1N1)) (P06821 whole entry): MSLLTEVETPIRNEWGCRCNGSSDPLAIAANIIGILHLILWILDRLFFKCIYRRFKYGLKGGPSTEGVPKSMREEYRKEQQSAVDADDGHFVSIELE

## 14C2 (chimeric mouse V-region/human IgG1 kappa 14C2 antibody)
  EC50 (read off the curve): 0.3 µg/mL
